Measured values: article PMC11642901 (bioRxiv, 2024)

Biological target: hMOG isoform 1 on live GL261 cells (human, UniProt Q16653)
Experiment: flow cytometry on cells

Sequence of hMOG isoform 1 on live GL261 cells (Q16653 30-247): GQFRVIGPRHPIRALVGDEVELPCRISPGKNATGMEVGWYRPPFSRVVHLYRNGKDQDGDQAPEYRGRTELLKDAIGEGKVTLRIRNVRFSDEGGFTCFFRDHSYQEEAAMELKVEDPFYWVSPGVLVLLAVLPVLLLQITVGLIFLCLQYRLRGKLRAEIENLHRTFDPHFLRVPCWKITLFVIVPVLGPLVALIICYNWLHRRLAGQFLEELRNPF

binding result: binds
B1: anti-MOG IgG1 clone 8–18C5 (antibody, V domains shown)
VH: EVKLHESGAGLVKPGASVEISCKATGYTFSSFWIEWVKQRPGHGLEWIGEILPGRGRTNYNEKFKGKATFTAETSSNTAYMQLSSLTSEDSAVYYCATGNTMVNMPYWGQGTTVTVSS
VL: DIELTQSPSSLAVSAGEKVTMSCKSSQSLLNSGNQKNYLAWYQQKPGLPPKLLIYGASTRESGVPDRFTGSGSGTDFTLTISSVQAEDLAVYYCQNDHSYPLTFGAGTKLEIK
